Here are results for ten molecules from US20140178332A1 (published 2014).

In test [1] the target is T1, recombinant purified cyno IL-12 p70 (cynomolgus monkey).
T1 chain 1: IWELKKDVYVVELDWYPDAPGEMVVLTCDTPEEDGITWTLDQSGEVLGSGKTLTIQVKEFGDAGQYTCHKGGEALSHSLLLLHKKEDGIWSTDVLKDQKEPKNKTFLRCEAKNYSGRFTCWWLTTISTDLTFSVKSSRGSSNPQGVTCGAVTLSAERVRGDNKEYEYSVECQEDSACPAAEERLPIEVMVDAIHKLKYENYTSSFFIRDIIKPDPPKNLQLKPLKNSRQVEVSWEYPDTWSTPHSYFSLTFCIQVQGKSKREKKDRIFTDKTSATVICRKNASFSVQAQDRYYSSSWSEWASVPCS
T1 chain 2: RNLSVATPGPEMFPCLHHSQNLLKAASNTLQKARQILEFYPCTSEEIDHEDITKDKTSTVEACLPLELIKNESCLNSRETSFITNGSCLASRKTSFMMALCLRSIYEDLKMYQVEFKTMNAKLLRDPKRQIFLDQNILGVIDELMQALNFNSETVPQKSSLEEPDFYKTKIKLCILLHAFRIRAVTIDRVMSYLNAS
As to the kind of experiment: cell-based or functional assay.

The target of test [2] is T2, recombinant purified human IL-12 p70 (human, UniProt P29459 23-219).
T2 sequence 1: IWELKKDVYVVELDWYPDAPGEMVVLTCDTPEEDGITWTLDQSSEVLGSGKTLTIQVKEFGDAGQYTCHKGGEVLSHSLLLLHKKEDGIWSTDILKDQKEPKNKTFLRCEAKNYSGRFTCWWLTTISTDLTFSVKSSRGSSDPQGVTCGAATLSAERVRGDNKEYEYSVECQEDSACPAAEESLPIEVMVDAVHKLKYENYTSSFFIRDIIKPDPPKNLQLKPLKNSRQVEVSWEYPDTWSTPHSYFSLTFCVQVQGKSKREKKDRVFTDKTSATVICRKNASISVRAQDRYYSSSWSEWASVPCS
T2 sequence 2: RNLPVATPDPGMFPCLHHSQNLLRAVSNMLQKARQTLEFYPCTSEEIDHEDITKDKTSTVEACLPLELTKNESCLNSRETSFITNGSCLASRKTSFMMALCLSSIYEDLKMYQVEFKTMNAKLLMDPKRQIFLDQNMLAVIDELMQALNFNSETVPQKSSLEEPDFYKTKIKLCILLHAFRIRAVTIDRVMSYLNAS
The test is described as follows: cell-based or functional assay.

Test [3] addresses T2, recombinant purified human IL-12 p70. As to the kind of experiment: cell-based or functional assay. This is another data set of the same source.
For test [4] the target is unchanged. The test is described as follows: SPR (BIAcore) as in Example 1.1.B, human IL-12p70. The method, then:
Approximately 5000 RU of goat anti-mouse IgG, (Fcγ), fragment specific polyclonal antibody (Pierce Biotechnology Inc, Rockford, Ill.) diluted in 10 mM sodium acetate (pH 4.5) was directly immobilized across a CM5 research grade biosensor chip using a standard amine coupling kit according to manufacturer's instructions and procedures at 25 μg/ml. Unreacted moieties on the biosensor surface were blocked with ethanolamine. Modified carboxymethyl dextran surface in flowcell 2 and 4 was used as a reaction surface. Unmodified carboxymethyl dextran without goat anti-mouse IgG in flow cell 1 and 3 was used as the reference surface. For kinetic analysis, rate equations derived from the 1:1 Langmuir binding model were fitted simultaneously to association and dissociation phases of all eight injections (using global fit analysis) with the use of Biaevaluation 4.0.1 software. Purified antibodies were diluted in HEPES-buffered saline for capture across goat anti-mouse IgG specific reaction surfaces. Mouse antibodies to be captured as a ligand (25 μg/ml) were injected over reaction matrices at a flow rate of 5 μl/min. The association and dissociation rate constants, kₒₙ (unit M⁻¹ s⁻¹) and koff (unit s⁻¹) were determined under a continuous flow rate of 25 μl/min. Rate constants were derived by making kinetic binding measurements at ten different antigen concentrations ranging from 10-200 nM. The equilibrium dissociation constant (unit M) of the reaction between mouse antibodies and recombinant purified human IL-12 p70 or recombinant purified human IL-12 p40 was then calculated from the kinetic rate constants by the following formula: KD=koff/kₒₙ. Binding is recorded as a function of time and kinetic rate constants are calculated. In this assay, on-rates as fast as 10⁶M⁻¹ s⁻¹ and off-rates as slow as 10⁻⁶ can be measured. […]
In general terms: SPR reads the build-up and loss of mass on a sensor chip optically.

B1: chimeric anti-human IL-12p40 antibody 8E1-Chim (antibody, human IgG1, kappa, L234A L235A, V domains shown)
VH: EVKLVESGGGLVQPGGSRKLSCAASGFTFSDYGMVWVRQAPGKGLEWVASISSGSSNIYYADTVKGRFTISRDDPNNTLFLQMRSLRSEDTAMYYCARNPYWGQGTTLTVSS
VL: DIVMTQSQKFMSTSVGDRVSVTCKASQNVGTNVAWYQQKPGQSPKGLIYSASHRYSGVPDRFAGSGSGTDFTLTISNVQSEDLAEYFCQQYNSYPLTFGGGTKLELKR
Turning to B1, the “Average IC50 (nM) Cyno IL-12, PHA blast IFN-γ assay” value in test [1] amounted to 0.15 nM. Also, in test [2], the “Average IC50 (nM) Human IL-12, PHA blast IFN-γ assay” value amounted to 0.17 nM.

B2: anti-IL-12p40 humanized antibody 8E1.3 (antibody, human IgG1, kappa, L234A L235A, V domains shown)
VH: EVKLVESGGGLVQPGGSLRLSCAASGFTFSDYGMVWVRQAPGKGLEWVASISSGSSNIYYADTVKGRFTISRDDSKNTLYLQMNSLKTEDTAVYYCARNPYWGQGTTVTVSS
VL: DIVMTQSPSSLSASVGDRVTITCKASQNVGTNVAWYQQKPEKAPKSLIYSASHRYSGVPSRFSGSGSGTDFTLTISSLQPEDFATYYCQQYNSYPLTFGGGTKVEIKR
notes: Back-mutated CDR-grafted antibody; COS cells
Broadly, the Kd is the free concentration of one partner at which half of the binding sites on the other are occupied at equilibrium, for simple one-to-one binding. By koff is commonly meant the first-order rate constant of dissociation. The kon is a measure of how fast the partners come together. Consider B2, for which the “Av. IC50 (nM) huIL-12, PHA blast assay” value in test [3] was 10 nM. For the same molecule, in test [4], the Kd came out at 0.76 nM, the off-rate (koff) came to 0.001 s⁻¹ and the kon was found to be 1.3e+06 M⁻¹ s⁻¹.

B3: anti-IL-12p40 humanized antibody 3G7.3 (antibody, human IgG1, kappa, L234A L235A, V domains shown)
VH: EVQLVQSGAEVKKPGASVKVSCKATGYTFNDYWIEWVRQAPGQGLEWMGGFSHGSGSTNYNEKFKGRVTMTADSSTNTAYMELRSLRSDDTAVYYCARRRFRGMDYWGQGTTVTVSS
VL: EIVMTQSPATLSVSPGERATLSCKASQSVSNDVAWYQQKPGQAPRLLIYYASNRYTGVPDRFSGSGSGTEFTLTISSLQSEDFAVYYCQQDYSSPWSFGGGTKVEIKR
notes: as for B2
Take B3: the “Av. IC50 (nM) huIL-12, PHA blast assay” value in test [3] stood at 0.42 nM. Further, in test [4], the dissociation constant Kd is 0.2 nM, the koff was determined as 0.00015 s⁻¹ and the kon came out at 780000 M⁻¹ s⁻¹.

B4: chimeric anti-human IL-12p40 antibody 1D4-Chim (antibody, human IgG1, kappa, L234A L235A, V domains shown)
VH: QVTLKESGPGILQPSQTLSLTCSFSGFSLRKSVMGVSWIRQPSGKGLEWLAHIYWDDDKYYNPSLKSRLTISKDPSRNQVFLKITSVDTADAATYYCTRRGIRSAMDYWGQGTSVTVSS
VL: SVVMTQTPKFLLVSAGDRVTITCKASQSVSNDVAWYQQKPGQSPKLLIYYASNRYTGVPDRFTGSGYGTDFTFIISTVRAEDLAVYFCQQDYNSPWTFGGGTKLEIKR
With B4, the “Average IC50 (nM) Cyno IL-12, PHA blast IFN-γ assay” value in test [1] was 0.07 nM. Also, the “Average IC50 (nM) Human IL-12, PHA blast IFN-γ assay” value in test [2] amounted to 0.021 nM.

B5: chimeric anti-human IL-12p40 antibody 3G7-Chim (antibody, human IgG1, kappa, L234A L235A, V domains shown)
VH: QVQLQQSGAELMKPGASVKISCKATGYTFNDYWIEWVKQRPGHGLEWIGGFSHGSGSTNYNEKFKGKATFTADSSSNTAYMQLSSLTSEDSAVYYCARRRFRGMDYWGQGTSVTVSS
VL: SIVMTQTPKFLLVSAGDRVTITCKASQSVSNDVAWYQQKPGQSPKLLIYYASNRYTGVPDRFTGSGYGTDFTFTITTVQAEDLAVYFCQQDYSSPWSFGGGTKLEIKR
As for B5, the “Average IC50 (nM) Cyno IL-12, PHA blast IFN-γ assay” value in test [1] turned out to be 0.32 nM. For the same molecule, in test [2], the “Average IC50 (nM) Human IL-12, PHA blast IFN-γ assay” value was 0.12 nM.

B6: chimeric antibody 3G7/1D4-Chim (chimeric 3G7 heavy chain with 1D4 chimeric light chain) (antibody, human IgG1, kappa, L234A L235A, V domains shown)
VH: QVQLQQSGAELMKPGASVKISCKATGYTFNDYWIEWVKQRPGHGLEWIGGFSHGSGSTNYNEKFKGKATFTADSSSNTAYMQLSSLTSEDSAVYYCARRRFRGMDYWGQGTSVTVSS
VL: SVVMTQTPKFLLVSAGDRVTITCKASQSVSNDVAWYQQKPGQSPKLLIYYASNRYTGVPDRFTGSGYGTDFTFIISTVRAEDLAVYFCQQDYNSPWTFGGGTKLEIKR
As for B6, in test [1], the “Average IC50 (nM) Cyno IL-12, PHA blast IFN-γ assay” value is 0.29 nM. Further, in test [2], the “Average IC50 (nM) Human IL-12, PHA blast IFN-γ assay” value was found to be 0.11 nM.

B7: chimeric anti-human IL-12p40 antibody 1A6-Chim (antibody, human IgG1, kappa, L234A L235A, V domains shown)
VH: QVTLKESGPGILKPSQTLSLTCSFSGFSLSTSGMGVSWIRQPSGKGLEWLAHIWWDGDNYYNPSLKSQLTISKDTSRNQVFLRIATVDTADTATYYCARRTRVNYAMDYWGQGTSVTVSS
VL: SVVMTQTPKFLLVSAGDRVTITCKASQSVSNDVAWFQQKPGQSPKLLIYYASNRYTGVPDRFTGSGYGTDFTFTISTVQAEDLAVYFCQQDYNSPWTFGGGTKLEIKR
On to B7, for which the “Average IC50 (nM) Cyno IL-12, PHA blast IFN-γ assay” value in test [1] was determined as 0.02 nM. Moreover, the “Average IC50 (nM) Human IL-12, PHA blast IFN-γ assay” value in test [2] came out at 0.021 nM.

B8: anti-IL-12p40 humanized antibody 1D4.6 (antibody, human IgG1, kappa, L234A L235A, V domains shown)
VH: EVTLRESGPALVKPTQTLTLTCTFSGFSLSKSVMGVSWIRQPPGKALEWLAHIYWDDDKYYNPSLKSRLTISKDTSKNQVVLTMTNMDPVDTATYYCTRRGIRSAMDYWGQGTTVTVSS
VL: DVVMTQSPDSLAVSLGERATINCKASQSVSNDVAWYQQKPGQPPKLLIYYASNRYTGVPDRFSGSGYGTDFTLTISSLQAEDVAVYYCQQDYNSPWTFGGGTKVEIKR
notes: COS cells
In the case of B8, the “Av. IC50 (nM) huIL-12, PHA blast assay” value in test [3] is 0.15 nM. Moreover, in test [4], the Kd is less than 0.01 nM, the dissociation rate constant (koff) was less than 1e-05 s⁻¹ and the on-rate (kon) amounted to 480000 M⁻¹ s⁻¹.

B9: anti-IL-12p40 humanized antibody 1D4.8 (antibody, human IgG1, kappa, L234A L235A, V domains shown)
VH: EVTLRESGPALVKPTQTLTLTCTFSGFSLRKSVMGVSWIRQPPGKALEWLAHIYWDDDKYYNPSLKSRLTISKDTSKNQVVLTMTNMDPVDTATYYCTRRGIRSAMDYWGQGTTVTVSS
VL: DIVMTQSPDSLAVSLGERATINCKASQSVSNDVAWYQQKPGQPPKLLIYYASNRYTGVPDRFSGSGSGTDFTLTISSLQAEDVAVYYCQQDYNSPWTFGGGTKVEIKR
notes: as for B2
As to B9, the “Av. IC50 (nM) huIL-12, PHA blast assay” value in test [3] came to 0.095 nM. In test [4], the Kd is less than 0.01 nM, the koff is less than 1e-05 s⁻¹ and the kon is 120000 M⁻¹ s⁻¹.

B10: anti-IL-12p40 humanized antibody 1A6.9 (antibody, human IgG1, kappa, L234A L235A, V domains shown)
VH: EVTLRESGPALVKPTQTLTLTCTFSGFSLSTSGMGVSWIRQPPGKALEWLAHIWWDGDNYYNPSLKSRLTISKDTSKNQVVLTMTNMDPVDTATYYCARRTRVNYAMDYWGQGTTVTVSS
VL: SVVMTQSPDSLAVSLGERATINCKASQSVSNDVAWFQQKPGQPPKLLIYYASNRYTGVPDRFSGSGYGTDFTLTISSLQAEDVAVYYCQQDYNSPWTFGGGTKVEIKR
notes: as for B2
On to B10, for which, in test [3], the “Av. IC50 (nM) huIL-12, PHA blast assay” value worked out at 0.15 nM. In test [4], the Kd is less than 0.01 nM, the koff was less than 1e-05 s⁻¹ and the association rate constant (kon) was found to be 350000 M⁻¹ s⁻¹.
